Data published in patent publication US20090215693A1, “METHODS FOR INCREASING HYALURONIC ACID LEVELS AND IMPROVING MOISTURE RETENTION IN TISSUE” (priority 2008, published 2009).

System: Fibroblasts
Test: Hyaluronic acid production by cultured fibroblasts (ELISA of culture medium)
Assay type: cell-based
Details: fibroblast culture; even at the lowest concentrations tested
Protocol: Fibroblasts were seeded into individual wells of a 12-well plate in 1.0 ml of Fibroblast Growth Media (FGM) and incubated overnight at 37±2° C. and 5±1% CO2. On the following day the media was removed via aspiration to eliminate non-adherent cells and replaced with 1.0 ml of fresh FGM. Cells were grown until confluent, with a media change every 48 to 72 hours. Upon reaching confluency the cells were treated for 24 hours with DMEM supplemented with 1.5% FBS to eliminate growth factors from the normal culture media. After this 24-hour wash-out period the cells were treated with the indicated test materials (i.e., milk-derived products containing lactoferrin) at the specified concentrations dissolved in FGM with 1.5% FBS. Dibutyrl cAMP (DBcAMP) at 0.1 mM was used as a positive control. Untreated cells (negative control) received FGM with 1.5% FBS. The cells were incubated for 48 hours and at the end of the incubation period cell culture medium was collected and either stored frozen (−75° C.) or assayed immediately. All testing was done in triplicate.
A series of hyaluronic acid standards from 50 ng/ml to 3,200 ng/ml was prepared. […] After incubation, 50 μl of stop solution was added to each well and the absorbance was measured at 405 nm using a plate reader. Hyaluronic acid production was expressed as ng/ml and results are shown in Table 1 and the graph of FIG. 1.

B1: bovine milk-derived lactoferrin: multi-functional protein found in mammalian milk, primarily in the whey fraction (protein, UniProt P24627 20-708, looked up)
Lactotransferrin: APRKNVRWCTISQPEWFKCRRWQWRMKKLGAPSITCVRRAFALECIRAIAEKKADAVTLDGGMVFEAGRDPYKLRPVAAEIYGTKESPQTHYYAVAVVKKGSNFQLDQLQGRKSCHTGLGRSAGWIIPMGILRPYLSWTESLEPLQGAVAKFFSASCVPCIDRQAYPNLCQLCKGEGENQCACSSREPYFGYSGAFKCLQDGAGDVAFVKETTVFENLPEKADRDQYELLCLNNSRAPVDAFKECHLAQVPSHAVVARSVDGKEDLIWKLLSKAQEKFGKNKSRSFQLFGSPPGQRDLLFKDSALGFLRIPSKVDSALYLGSRYLTTLKNLRETAEEVKARYTRVVWCAVGPEEQKKCQQWSQQSGQNVTCATASTTDDCIVLVLKGEADALNLDGGYIYTAGKCGLVPVLAENRKSSKHSSLDCVLRPTEGYLAVAVVKKANEGLTWNSLKDKKSCHTAVDRTAGWNIPMGLIVNQTGSCAFDEFFSQSCAPGADPKSRLCALCAGDDQGLDKCVPNSKEKYYGYTGAFRCLAEDVGDVAFVKNDTVWENTNGESTADWAKNLNREDFRLLCLDGTRKPVTEAQSCHLAVAPNHAVVSRSDRAAHVKQVLLHQQALFGKNGKNCPDKFCLFKSETKNLLFNDNTECLAKLGGRPTYEEYLGTEYVTAIANLKKCSTSPLLEACAFLTR
Q: With B1 as the molecule, how does the “hyaluronic acid levels compared with untreated fibroblasts” value read?
A: detectable and significant increase
